The target of the test is T1, human CD123 (interleukin-3 receptor alpha subunit) (human, UniProt P26951 19-378).
T1 construct: Native CD123 on patients' cells; also called IL-3Rα; Interleukine-3 Receptor alpha
Put plainly: average CD123 receptor saturation on patients' cells after intravenous IMGN632, Schedule A, Cohorts 1-6 (method not described).

The text below walks through data of patent US20230312735A1 (IMMUNOGEN, published 2023).

T1 sequence (P26951 19-378 limits assumed): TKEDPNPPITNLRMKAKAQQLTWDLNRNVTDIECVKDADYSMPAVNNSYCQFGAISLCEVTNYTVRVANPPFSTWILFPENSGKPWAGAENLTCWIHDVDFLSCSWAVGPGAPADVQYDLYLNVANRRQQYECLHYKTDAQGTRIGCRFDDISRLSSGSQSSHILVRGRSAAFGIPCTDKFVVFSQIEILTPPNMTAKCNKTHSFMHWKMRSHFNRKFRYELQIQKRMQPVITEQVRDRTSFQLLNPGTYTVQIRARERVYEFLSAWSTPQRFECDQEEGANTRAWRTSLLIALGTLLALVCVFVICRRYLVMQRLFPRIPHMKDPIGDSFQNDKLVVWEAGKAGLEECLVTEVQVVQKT

B1: IMGN632 (immunoconjugate of the anti-CD123 huCD123-6Gv4.7 antibody linked to DGN549-C) (antibody, V domains shown)
VH: QVQLVQSGAEVKKPGASVKVSCKASGYIFTSSIMHWVRQAPGQGLEWIGYIKPYNDGTKYNEKFKGRATLTSDRSTSTAYMELSSLRSEDTAVYYCAREGGNDYYDTMDYWGQGTLVTVSS
VL: DIQMTQSPSSLSASVGDRVTITCRASQDINSYLSWFQQKPGKAPKTLIYRVNRLVDGVPSRFSGSGSGNDYTLTISSLQPEDFATYYCLQYDAFPYTFGQGTKVEIKR
modifications: DGN549-C cytotoxic agent (peptide linker) covalently linked through a cysteine residue (huCD123-6Gv7-C442 heavy chain); average of 1.5 to 2.1 DGN549-C per antibody, mostly the sulfonated form
notes: also called anti-CD123 immunoconjugate; G4723A-DGN549-C
Regarding B1, the binding result is on record as “binds”.
